In paper PMC9807187:

Biological target: FLAG-tagged METTL3, wild type (UniProt Q8C3P7)
Experiment: co-IP

UniProt Q8C3P7, sequence (Q8C3P7 whole entry): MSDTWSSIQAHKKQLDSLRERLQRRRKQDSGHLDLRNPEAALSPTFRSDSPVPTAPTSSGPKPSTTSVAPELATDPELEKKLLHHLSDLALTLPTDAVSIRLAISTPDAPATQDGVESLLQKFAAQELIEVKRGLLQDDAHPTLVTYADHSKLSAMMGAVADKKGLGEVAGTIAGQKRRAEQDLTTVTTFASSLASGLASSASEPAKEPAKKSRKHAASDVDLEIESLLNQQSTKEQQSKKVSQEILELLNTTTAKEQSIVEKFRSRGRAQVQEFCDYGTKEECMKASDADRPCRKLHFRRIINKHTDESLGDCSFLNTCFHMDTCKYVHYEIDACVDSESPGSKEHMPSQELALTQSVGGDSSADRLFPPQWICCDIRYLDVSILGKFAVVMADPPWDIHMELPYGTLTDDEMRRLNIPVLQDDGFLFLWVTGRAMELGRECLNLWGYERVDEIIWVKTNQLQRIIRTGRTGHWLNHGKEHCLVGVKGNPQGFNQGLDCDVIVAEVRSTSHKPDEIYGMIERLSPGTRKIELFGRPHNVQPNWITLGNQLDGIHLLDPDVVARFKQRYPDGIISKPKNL

HA-p53 25,26,53,54 (p53 L25Q,Q26S,F53Q,F54S mutant) (from UniProt P02340 1-390) (natural protein)
reduction of binding against wild-type p53: 50%
